Where a chain is given by its changes, count along the chain named.
B1: anti-Mac-1 antibody clone 24G05 (antibody, human IgG4, V domains shown)
VH: EVQLVESGGGLVQPGGSLRLSCAASGFTFTSYWMTWVRQAPGKGLEWVSTIVGGGGEADYADSVKGRFTISRDNSKNTLYLQMNSLRAEDTAVYYCARDYVADNHGAMDYWGQGTLVTVSS
VL: DIQMTQSPSSLSASVGDRVTITCRASQGLSSYLNWYQQKPGKAPKLLIYGMSTLQSGVPSRFSGSGSGTDFTLTISSLQPEDFATYYCMQYYHWPYTFGQGTKVEIK
B2: anti-Mac-1 antibody clone 28E07-HH (antibody, human IgG4, V domains shown)
VH: QVQLVQSGAEVKKPGASVKVSCKASGYSFTDYNMNWVRQAPGQGLEWMGEINPGYGTSRYNQKFKDRVTMTRDTSISTAYMELSRLRSDDTAVYYCARADVDYGDVMDYWGQGTLVTVSS
VL: EIVLTQSPATLSLSPGERATLSCSASSSVSYMHWYQQKPGQAPRLLIYDTSKLASGIPARFSGSGSGTDFTLTISSLEPEDFAVYYCQQWSSNPPTFGQGTKLEIK
B3: anti-Mac-1 antibody clone 24G09 (antibody, human IgG4, V domains shown)
VH: EVQLVESGGGLVQPGGSLRLSCAASGFTFSDYAIGWVRQAPGKGLEWVSTIYWSGSNAYYADSVKGRFTISRDNSKNTLYLQMNSLRAEDTAVYYCARLFTLGYHGFDVWGQGTLVTVSS
VL: DIQMTQSPSSLSASVGDRVTITCRASQSINTYLNWYQQKPGKAPKLLIYDASNLQSGVPSRFSGSGSGTDFTLTISSLQPEDFATYYCQQYDDLPFTFGQGTKVEIK
B4: anti-Mac-1 antibody clone 24F08 (antibody, human IgG4, V domains shown)
VH: EVQLVESGGGLVQPGGSLRLSCAASGFTFSSYWMSWVRQAPGKGLEWVSIINYSGREADYADSVKGRFTISRDNSKNTLYLQMNSLRAEDTAVYYCARDGSYVGQAHEAFDIWGQGTLVTVSS
VL: B3 VL with N30S, T31K, N34A, D50G, A51T, Y91S, D92R, D93S, L94W, F96L
B5: anti-Mac-1 antibody clone 28D06 (antibody, human IgG4, V domains shown)
VH: QVKLQQSGPELVKPGASVKISCKASGYSFTDYNMNWVKQSNGKSLEWIGEINPNYGTTRYNQKFKGKATLTVDQSSSTAYMQLNSLTSEDSAVYYCARPSIYYDYDDAMDYWGQGTTVTVSS
VL: DIELTQSPAIMSASPGEKVTMTCSASSSVNYMYWYQQKPGSSPRLLIYDTSNLASGVPVRFSGSGSGTSYSLTISRMEAEDAATYYCQQWITYPPTLTFGAGTKLEIK
B6: anti-Mac-1 antibody clone 27E12 (antibody, human IgG4, V domains shown)
VH: QVQLQQSGTVLARPGASVKMSCKASGYTFTSYWMHWVKQRPGQGLEWIGAIYPGNSDTSYNQKFKGKAKLTAVTSASTAYMELSSLTNEDSAVYYCTRGGGSYEFAYWGQGTTVTVSS
VL: DIELTQSPAIMSASPGEKVTMTCSVSSSVSYMYWYQQKPGSSPRLLIYDTSNLASGVPARFSGSGSGTSYSLTISSMEAEDAATYYCQQWSSNPFTFGSGTKLEIK
B7: anti-Mac-1 antibody clone H4L2 (antibody, human IgG4, V domains shown)
VH: QVQLVQSGAEVKKPGASVKVSCKASGYTFTNYWINWVRQAPGQRLEWMGNIYPSDTYINHNQKFKDRVTITRDTSASTAYMELSSLRSEDTAVYYCARSAYANYFDYWGQGTLVTVSS
VL: EIVMTQSPATLSVSPGERATLSCRASQNIGTSIHWYQQKPGQAPRLLIYYASESISGIPARFSGSGSGTEFTLTISSLQSEDFAVYYCQQSDSWPTLTFGQGTKLEIK
B8: anti-Mac-1 antibody clone 27A04 (antibody, human IgG4, V domains shown)
VH: QVKLQQSGPELVKPGASVKISCKASGYSFTDYNMNWVKQSNGKSLEWIGVINPNYGTTSYNQKFKGKATLTVDQSSSTAYMQLNSLTSEDSAVYYCARTYDYDGDAFAYWGQGTTVTVSS
VL: DIELTQSPAIMSASPGEKVTMTCSASSSVSYMHWYQQKSGTSPKRWIYDTSKLASGVPARFSGSGSGTSYSLTISSMEAEDAATYYCQQWSSNPPTFGAGTKLELK
B9: anti-Mac-1 antibody clone 28E07 (antibody, human IgG4, V domains shown)
VH: QVQLQQSGPELVKPGASVKISCKASGYSFTDYNMNWVKQSNGKSLEWIGEINPGYGTSRYNQKFKDKATLTVDQSSTTAYMQLNSLTSEDSAVYYCARADVDYGDVMDYWGQGTTVTVSS
VL: B8 VL with A59T
B10: anti-Mac-1 antibody clone 27G04 (antibody, human IgG4, V domains shown)
VH: B8 VH with Q6E, Y100F, G104D
VL: B8 VL with M21I, Y31D, S76N
B11: anti-Mac-1 antibody clone 28A12 (antibody, human IgG4, V domains shown)
VH: B9 VH with Q3K, Q6E, T77S, V106T
VL: B8 VL with Y31D, T41N, A59V
B12: anti-Mac-1 antibody clone 27A06 (antibody, human IgG4, V domains shown)
VH: B8 VH with K13T, A24P, V50E, S59R, Y60H, T69S, N84I, G104E
VL: B8 VL with G40D

Molecular target: T1, human Mac-1 (integrin αMβ2, CD11b/CD18) (human, UniProt P11215 17-1152; P05107 23-769)
Assay: flow cytometry, HEK293/Mac-1 cells (clone 1-4), PBS (Mock)
Experimental: (§1) The HEK293/Mac-1 cells (clone1-4) were counted and washed twice with staining buffer (PBS containing 1% FBS, and 0.1% sodium azide). Cells were adjusted at a concentration of 1×10⁵ cells/ml in staining buffer and treated with/without 0.25 mM MnCl₂ (Sigma). Cells were treated with anti-Mac-1 antibodies and fluorescent conjugated anti-human IgG4 antibodies and incubated for 15 mins. After washing with the staining buffer, the cells were analyzed by flow cytometry. In some examples, these cells were treated with the antibodies (ICRF44, KIM127, m24, or isotype control) in the presence or absence 10 μg/ml anti-Mac-1 antibodies. The cells were then incubated at 37° C. for 30 min. After washing with the staining buffer, the cells were analyzed by flow cytometry.
(§2) TABLE II The anti-Mac-1 antibodies selectively bind to different statuses of human Mac-1. HEK293/Mac-1 cells (clone1-4) were incubated in PBS (Mock), or PBS/MnCl₂ (Mn²⁺). Binding of isotype control IgG, the CD11b specific mAb (ICRF44), the CD11b activation-sensing mAb (CBRM1/5), or the screened anti-Mac-1 antibody was detected using flow cytometry.

Row | Binder | Mock MFI [MFI]
1 | B1 | 55900
2 | B2 | 1.03e+06
3 | B3 | 29500
4 | B4 | 50000
5 | B5 | 51800
6 | B6 | 56800
7 | B7 | 41600
8 | B8 | 36100
9 | B9 | 53400
10 | B10 | 43100
11 | B11 | 55200
12 | B12 | 64600

Molecular target: T1, human Mac-1 (integrin αMβ2, CD11b/CD18)
Assay: flow cytometry, HEK293/Mac-1 cells (clone 1-4), PBS/MnCl2 (Mn2+)
Experimental: as §1, §2

Row | Binder | Mn^2+ MFI [MFI]
13 | B1 | 44800
14 | B2 | 1.02e+06
15 | B3 | 26900
16 | B4 | 42100
17 | B5 | 30600
18 | B6 | 50800
19 | B7 | 45700
20 | B8 | 39800
21 | B9 | 56400
22 | B10 | 41100
23 | B11 | 37300
24 | B12 | 48000

Molecular target: T1, human Mac-1 (integrin αMβ2, CD11b/CD18)
Assay: flow cytometry, HEK293/Mac-1 cells; MFI in PBS over MFI in PBS/MnCl2
Experimental: as §1, §2

Row | Binder | Mock/Mn^2+ Ratio
25 | B1 | 1.25
26 | B2 | 1.01
27 | B3 | 1.1
28 | B4 | 1.19
29 | B5 | 1.69
30 | B6 | 1.12
31 | B7 | 0.91
32 | B8 | 0.91
33 | B9 | 0.95
34 | B10 | 1.05
35 | B11 | 1.48
36 | B12 | 1.35

Molecular target: T1, human Mac-1 (integrin αMβ2, CD11b/CD18)
Assay: flow cytometry, HEK293/Mac-1 cells, PBS (Mock), 10 µg/ml of this antibody; binding of reporter mAb m24 read
Experimental: as §1
(§3) TABLE III The anti-Mac-1 antibodies can serve as agonist to enhance the conformational change of Mac-1. HEK293/Mac-1 cells (clone1-4) were incubated with 10 μg/ml anti-Mac-1 antibodies under the PBS (Mock) condition. Binding of KIM127 or m24 was detected using flow cytometry.

Row | Binder | m24 (Expression relative to IgG4)
37 | B1 | 25 relative to IgG4
38 | B2 | 0.83 relative to IgG4
39 | B3 | 0.72 relative to IgG4
40 | B4 | 21.2 relative to IgG4
41 | B5 | 0.65 relative to IgG4
42 | B6 | 0.64 relative to IgG4
43 | B7 | 0.44 relative to IgG4
44 | B8 | 0.78 relative to IgG4
45 | B9 | 0.63 relative to IgG4
46 | B10 | 1 relative to IgG4
47 | B11 | 0.88 relative to IgG4
48 | B12 | 0.88 relative to IgG4

Molecular target: T1, human Mac-1 (integrin αMβ2, CD11b/CD18)
Assay: flow cytometry, HEK293/Mac-1 cells, PBS (Mock), 10 µg/ml of this antibody; binding of reporter mAb KIM127 read
Experimental: as §1, §3

Row | Binder | KIM127 (Expression relative to IgG4)
49 | B1 | 2.22 relative to IgG4
50 | B2 | 0.9 relative to IgG4
51 | B3 | 1.01 relative to IgG4
52 | B4 | 2.17 relative to IgG4
53 | B5 | 0.99 relative to IgG4
54 | B6 | 1 relative to IgG4
55 | B7 | 1.11 relative to IgG4
56 | B8 | 1.05 relative to IgG4
57 | B9 | 0.98 relative to IgG4
58 | B10 | 1.11 relative to IgG4
59 | B11 | 1.02 relative to IgG4
60 | B12 | 1.04 relative to IgG4

Molecular target: T1, human Mac-1 (integrin αMβ2, CD11b/CD18)
Assay: flow cytometry, HEK293/Mac-1 cells, PBS/MnCl2 (Mn2+), 10 µg/ml of this antibody; binding of reporter mAb m24 read
Experimental: as §1
(§4) TABLE IV The anti-Mac-1 antibody can serve as an antagonist to reduce the conformational change of Mac-1. HEK293/Mac-1 cells (clone1-4) were incubated with 10 μg/ml anti-Mac-1 antibodies under the PBS/MnCl₂ (Mn²⁺) condition. Binding of KIM127 or m24 was detected using flow cytometry.

Row | Binder | m24 (Expression relative to IgG4)
61 | B1 | 3.85 relative to IgG4
62 | B2 | 0.75 relative to IgG4
63 | B3 | 1 relative to IgG4
64 | B4 | 4.01 relative to IgG4
65 | B5 | 0.62 relative to IgG4
66 | B6 | 0.85 relative to IgG4
67 | B7 | 0.23 relative to IgG4
68 | B8 | 0.88 relative to IgG4
69 | B9 | 0.85 relative to IgG4
70 | B10 | 1.14 relative to IgG4
71 | B11 | 1.07 relative to IgG4
72 | B12 | 0.88 relative to IgG4

Molecular target: T1, human Mac-1 (integrin αMβ2, CD11b/CD18)
Assay: flow cytometry, HEK293/Mac-1 cells, PBS/MnCl2 (Mn2+), 10 µg/ml of this antibody; binding of reporter mAb KIM127 read
Experimental: as §1, §4

Row | Binder | KIM127 (Expression relative to IgG4)
73 | B1 | 1.64 relative to IgG4
74 | B2 | 0.87 relative to IgG4
75 | B3 | 0.89 relative to IgG4
76 | B4 | 1.73 relative to IgG4
77 | B5 | 0.69 relative to IgG4
78 | B6 | 0.71 relative to IgG4
79 | B7 | 0.63 relative to IgG4
80 | B8 | 0.7 relative to IgG4
81 | B9 | 0.65 relative to IgG4
82 | B10 | 0.89 relative to IgG4
83 | B11 | 0.87 relative to IgG4
84 | B12 | 0.85 relative to IgG4
